First the molecules themselves.
B1: CD117-ADC (anti-CD117 antibody CK6 conjugated to amatoxin) (antibody, V domains shown)
VH: QVQLVQSGAAVKKPGESLKISCKGSGYRFTSYWIGWVRQMPGKGLEWMGIIYPGDSDTRYSPSFQGQVTISAGKSISTAYLQWSSLKASDTAMYYCARHGRGYNGYEGAFDIWGQGTMVTVSS
VL: AIQLTQSPSSLSASVGDRVTITCRASQGISSALAWYQQKPGKAPKLLIYDASSLESGVPSRFSGSGSGTDFTLTISSLQPEDFATYYCQQFNSYPLTFGGGTKVEIK
modifications: antibody conjugated to an amatoxin; site and linker not stated for this assay
B2: HC-249/LC-249 ADC (Ab249 conjugated to an amatoxin) (antibody, V domains shown)
VH: B1 VH with Q1E, A10E, S31T, Y32S, G73D, R101L, M118L
VL: B1 VL with A1D, L4M, S30G, S53N, S56T, F91L, S93G, G100Q, K103R, V104L
modifications: antibody conjugated to an amatoxin; site not stated
B3: HC-85/LC-85 ADC (Ab85 conjugated to an amatoxin) (antibody, V domains shown)
VH: EVQLVQSGAEVKKPGESLKISCKGSGYSFTNYWIGWVRQMPGKGLEWMAIINPRDSDTRYRPSFQGQVTISADKSISTAYLQWSSLKASDTAMYYCARHGRGYEGYEGAFDIWGQGTLVTVSS
VL: DIQMTQSPSSLSASVGDRVTITCRSSQGIRSDLGWYQQKPGKAPKLLIYDASNLETGVPSRFSGSGSGTDFTLTISSLQPEDFATYYCQQANGFPLTFGGGTKVEIK
modifications: antibody conjugated to an amatoxin; site not stated
B4: HC-79/LC-79 (Ab79) (antibody, IgG1, V domains shown)
VH: B1 VH with S31T
VL: B1 VL with A1D, I29V, S30G, S53I
notes: Purified human antibody tested as an IgG1; hIgG1/hKappa; also called Antibody 79
B5: HC-249/LC-249 (Ab249) (antibody, V domains shown)
VH: B1 VH with Q1E, A10E, S31T, Y32S, G73D, R101L, M118L
VL: B3 VL with S25A, R30G, D32A, G34A, A91L, F94Y, G100Q, K103R, V104L
notes: IgG on anti-human Fc sensors; hIgG1/hKappa
B6: HC-77/LC-77 (Ab77) (antibody, IgG1, V domains shown)
VH: B1 VH with S31T
VL: B1 VL with A1D, I29V, S30I, S53I
notes: Purified human antibody tested as an IgG1; hIgG1/hKappa; also called Antibody 77
B7: HC-81/LC-81 (Ab81) (antibody, IgG1, V domains shown)
VH: B1 VH with S31T
VL: B1 VL with A1D, I29V, S30I, S53T
notes: Purified human antibody tested as an IgG1; hIgG1/hKappa; also called Antibody 81
B8: HC-85/LC-85 (Ab85) (antibody, V domains shown)
VH: B3 VH
VL: B3 VL
notes: Purified IgG, hIgG1/hKappa; also called Antibody 85
B9: HC-1/LC-1 (Ab1) (antibody, IgG1, V domains shown)
VH: B1 VH with S31T
VL: B1 VL with I29V
notes: Purified IgG (IgG1); also called 001; CK6 derivative Ab1

Numbering of substitutions follows the chain as printed.

T1 sequence (P10721 26-976): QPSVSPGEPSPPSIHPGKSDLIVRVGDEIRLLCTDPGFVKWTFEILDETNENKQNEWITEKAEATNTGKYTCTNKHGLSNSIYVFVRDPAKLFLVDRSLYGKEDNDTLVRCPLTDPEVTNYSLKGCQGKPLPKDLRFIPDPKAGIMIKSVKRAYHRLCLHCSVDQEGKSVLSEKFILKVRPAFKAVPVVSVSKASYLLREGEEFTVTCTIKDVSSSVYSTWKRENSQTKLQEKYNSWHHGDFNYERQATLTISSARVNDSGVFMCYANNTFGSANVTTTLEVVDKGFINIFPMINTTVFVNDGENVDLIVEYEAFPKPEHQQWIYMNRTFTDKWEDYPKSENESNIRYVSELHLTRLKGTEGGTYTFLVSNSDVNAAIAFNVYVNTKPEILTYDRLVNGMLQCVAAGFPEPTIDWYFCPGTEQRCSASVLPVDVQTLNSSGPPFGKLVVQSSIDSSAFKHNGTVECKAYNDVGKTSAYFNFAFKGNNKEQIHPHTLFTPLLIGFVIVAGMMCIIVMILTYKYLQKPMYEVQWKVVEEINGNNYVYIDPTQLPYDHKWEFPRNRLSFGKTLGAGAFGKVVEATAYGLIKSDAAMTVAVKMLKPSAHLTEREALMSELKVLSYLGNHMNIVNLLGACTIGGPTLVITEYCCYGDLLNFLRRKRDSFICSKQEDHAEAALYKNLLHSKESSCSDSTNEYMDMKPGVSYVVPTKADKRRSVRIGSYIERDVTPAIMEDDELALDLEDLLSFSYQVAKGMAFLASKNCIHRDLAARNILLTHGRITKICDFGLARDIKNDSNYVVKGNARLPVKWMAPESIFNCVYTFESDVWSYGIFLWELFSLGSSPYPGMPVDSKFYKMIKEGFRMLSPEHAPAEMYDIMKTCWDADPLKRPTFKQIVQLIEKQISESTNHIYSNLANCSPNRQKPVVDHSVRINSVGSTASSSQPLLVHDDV

One assay concerns the target T1, CD117 on Kasumi-1 cells and primary human CD34+ bone marrow cells (human, UniProt P10721 26-976). The experiment in a line: cell-based or functional assay.
For B1, the “IC50, in vitro killing of Kasumi-1 cells (Celltiter Glo)” value was 1600 nM and the “IC50, in vitro killing of primary human CD34+ bone marrow cells” value is 21000 nM.

Another assay concerns the target T1, CD117 on Kasumi-1 cells and primary …. As to the kind of experiment: cell-based or functional assay. This is another data set of the same source.
B1: the “IC50 (M), Kasumi-1 cell killing (Celltiter Glo, 3 days)” value is 1.48e-11 M.
With B2, the “IC50 (M), Kasumi-1 cell killing (Celltiter Glo, 3 days)” value was 2.5e-11 M.
Same read-out and setting: the result for B3 reads 1.76e-11 M.

A further assay has the same target. As to the kind of experiment: cell-based or functional assay. This is another data set of the same source.
Take B1: the “% efficacy, killing of primary human CD34+CD90+ cells” value was found to be 70.8% and the “IC50, killing of primary human CD34+CD90+ cells (5 days, flow cytometry counts)” value turned out to be 0.00977 nM.
For B2 the same measures were 52% and 0.00667 nM.
The like results for B3 were, in that order, 71.2% and 0.00574 nM.

For a further assay, the target named is T2, purified human CD117 ectodomain (R&D Systems #332-SR) (human, UniProt P10721 26-524).
T2 construct: extracellular domain; Bought protein; also called c-kit; purified recombinant human CD117 ectodomain
T2 sequence (P10721 26-524): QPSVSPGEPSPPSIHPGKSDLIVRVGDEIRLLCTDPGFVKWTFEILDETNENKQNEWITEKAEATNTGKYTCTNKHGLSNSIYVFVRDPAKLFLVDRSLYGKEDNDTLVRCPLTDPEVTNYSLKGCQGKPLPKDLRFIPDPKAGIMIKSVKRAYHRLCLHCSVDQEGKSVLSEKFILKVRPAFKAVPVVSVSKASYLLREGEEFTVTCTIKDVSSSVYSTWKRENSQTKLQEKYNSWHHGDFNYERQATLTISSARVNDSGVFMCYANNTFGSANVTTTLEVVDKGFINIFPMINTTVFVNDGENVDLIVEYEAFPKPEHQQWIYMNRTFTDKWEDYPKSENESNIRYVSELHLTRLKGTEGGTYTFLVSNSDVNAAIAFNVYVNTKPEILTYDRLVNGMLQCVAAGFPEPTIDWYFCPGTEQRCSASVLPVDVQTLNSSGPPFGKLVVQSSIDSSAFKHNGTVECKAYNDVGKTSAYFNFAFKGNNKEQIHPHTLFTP
As to the kind of experiment: BLI; kdis compared to HC-1/LC-1 (Ab1). (In general: Biolayer interferometry detects binding as a change in optical thickness at a sensor tip.)
As for B4, the “Fold improvement (off-rate)” value was determined as 4.7 fold.
Still for that read-out and setting: the result for B5 reads 12 fold; that for B6, 10.5 fold; that for B7, 9 fold.
On the same count and under the same terms, as for B8, the figure is 5.2 fold.

A further assay has as its target T2, purified human CD117 ectodomain (R&D …). As to the kind of experiment: BLI, IgG on anti-human Fc sensor, 33 and 11 nM ectodomain.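 Also: Kd, kon and koff are apparent values, with Kd reported as the apparent monovalent affinity.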
On to B4, for which the Kd was determined as 1.52 nM; the dissociation rate constant (koff) (in general, the first-order rate constant of dissociation) amounted to 0.000478 s⁻¹; the kon – broadly, the rate constant with which the complex forms – is 316000 M⁻¹ s⁻¹.
The like results for B5 were, in that order, 0.551 nM, 0.000189 s⁻¹ and 344000 M⁻¹ s⁻¹.
For B9 the same measures were 4.09 nM, 0.00227 s⁻¹ and 556000 M⁻¹ s⁻¹.
The like results for B6 were, in that order, 0.684 nM, 0.000215 s⁻¹ and 315000 M⁻¹ s⁻¹.
Molecule B7 had a Kd of 0.877 nM, a koff of 0.000252 s⁻¹ and a kon of 288000 M⁻¹ s⁻¹.
For B8 the same measures were 0.835 nM, 0.000434 s⁻¹ and 520000 M⁻¹ s⁻¹.

For another assay the target is unchanged. The experiment in a line: BLI, purified IgG on sensor, soluble ectodomain; apparent monovalent.
For the molecule B9, the Kd was 2.81 nM, the koff came out at 0.000848 s⁻¹ and the kon came to 302000 M⁻¹ s⁻¹.

The next assay shares this target. The experiment in a line: BLI (Octet Red96), IgG on anti-human Fc sensor, 33.3 and 11 nM ectodomain.
As for B9, the Kd is 4.09 nM, the koff is 0.00227 s⁻¹ and the kon was 556000 M⁻¹ s⁻¹.
For B8 the same measures were 0.835 nM, 0.000434 s⁻¹ and 520000 M⁻¹ s⁻¹.

The next assay has the same target. The experiment in a line: BLI (Octet Red96), IgG1 on anti-human Fc sensor, 33.3 and 11 nM ectodomain, 1:1 fit.
In the case of B4, the Kd came out at 1.52 nM, the koff worked out at 0.000478 s⁻¹ and the kon was found to be 316000 M⁻¹ s⁻¹.
For B9 the same measures were 3.1 nM, 0.0013 s⁻¹ and 420000 M⁻¹ s⁻¹.
For B6 the same measures were 0.684 nM, 0.000215 s⁻¹ and 315000 M⁻¹ s⁻¹.
The like results for B7 were, in that order, 0.877 nM, 0.000252 s⁻¹ and 288000 M⁻¹ s⁻¹.

For the origin of these results see US20240360238A1 (MAGENTA THERAPEUTICS, published 2024).
